Test results taken from publication doi:10.1101/2021.09.06.458672.

Target: plectasin variant D9S Q14K V36L (PPI42)
Assay: dynamic light scattering

mass fraction of medium sized oligomers and protein fibrils: < 2.5 % mass
Substance: plectasin variant D9S Q14K V36L (PPI42) (peptide)
